# Target: the molecule itself
# Assay: sucrose density gradient analysis
protein,measurement,value
"Acetylcholinesterase, endogenous in macrophages (enzyme, UniProt P21836 32-614, looked up) EGREDPQLLVRVRGGQLRGIRLKAPGGPVSAFLGIPFAEPPVGSRRFMPPEPKRPWSGVLDATTFQNVCYQYVDTLYPGFEGTEMWNPNRELSEDCLYLNVWTPYPRPASPTPVLIWIYGGGFYSGAASLDVYDGRFLAQVEGAVLVSMNYRVGTFGFLALPGSREAPGNVGLLDQRLALQWVQENIAAFGGDPMSVTLFGESAGAASVGMHILSLPSRSLFHRAVLQSGTPNGPWATVSAGEARRRATLLARLVGCPPGGAGGNDTELIACLRTRPAQDLVDHEWHVLPQESIFRFSFVPVVDGDFLSDTPEALINTGDFQDLQVLVGVVKDEGSYFLVYGVPGFSKDNESLISRAQFLAGVRIGVPQASDLAAEAVVLHYTDWLHPEDPTHLRDAMSAVVGDHNVVCPVAQLAGRLAAQGARVYAYIFEHRASTLTWPLWMGVPHGYEIEFIFGLPLDPSLNYTTEERIFAQRLMKYWTNFARTGDPNDPRDSKSPQWPPYTTAAQQYVSLNLKPLEVRRGLRAQTCAFWNRFLPKLLSATDTLDEAERQWKAEFHRWSSYMVHWKNQFDHYSKQERCSDL",stoichiometry N,4
